Measured values from the supplement of paper PMC12667976.

B1: library; numbered along this chain (parent)
chain: MATDAALRRLLRLHRTEIAVAVDSAFPLLHALADHDVVPEDKFQETLHLKEKEGCPQAFHALLSWLLTQDSTAILDFWRVLFKDYNLERYGRLQPILDSFPKDVDLSQPRKGRKPPAVPKALVPPPRLPTKRKASEEARAAAPAALTPRGTASPGSQLKAKPPKKPESSAEQQRLPLGNGIQTMSASVQRAVAMSSGDVPGARGAVEGILIQQVFESGGSKKCIQVGGEFYTPSKFEDSGSGKNKARSSSGPKPLVRAKGAQGAAPGGGEARLGQQGSVPAPLALPSDPQLHQKNEDECAVCRDGGELICCDGCPRAFHLACLSPPLREIPSGTWRCSSCLQATVQEVQPRAEEPRPQEPPVETPLPPGLRSAGEEVRGPPGEPLAGMDTTLVYKHLPAPPSAAPLPGLDSSALHPLLCVGPEGQQNLAPGARCGVCGDGTDVLRCTHCAAAFHWRCHFPAGTSRPGTGLRCRSCSGDVTPAPVEGVLAPSPARLAPGPAKDDTASHEPALHRDDLESLLSEHTFDGILQWAIQSMARPAAPFPS

Variants of: B1
Test: AIRE transcriptional activation functional score (insulin promoter-GFP; nonsense median 0, synonymous median 1) (normalised score); higher = higher AIRE activity (more reporter activation)
Conditions: with insulin promoter-GFP reporter in HEK293
Method: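 Deep mutational scan of full-length human AIRE (codon-optimized cDNA, DT-POPCode NNN libraries over three regions) integrated at a Bxb1 landing pad in HEK293 cells carrying an insulin core promoter-GFP reporter at a Flp-In site. Cells were sorted for the top 10% GFP about 14 days after transfection. Variant frequency log-ratios (select vs non-select, TileSeq) were rescaled so that the nonsense median is 0 and the synonymous median is 1, then averaged over biological replicates.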

AIRE transcriptional activation functional score: each site, then its substitutions
Q172: H 1.81, F 1.82, S 0.645, K 0.844, G 0.609, T 1.56, I 2.08, V 1.18, A 0.74, M 2.4, Y 1.7, W 1.71, P 0.611, D 1.14, L 1.55
K165: S 0.597, R 0.872, L 0.369, M 1.15, E 1.01, N 0.909, H 1.16, Y 0.91, T -0.814, D 0.206, C 0.37, V 0.921, I 2.29, G 0.47, P -0.251, W 1.06, Q 0.596, F 1.23, A -0.0692
L175: A 0.583, C 0.818, F 1.16, N 0.295, Q 1.1, V 0.629, K 0.766, G 0.614, D 1.04, T 0.916, R 1.06, M 1.05, S 0.686, E -0.0357, H 1.33, W 1.8, I 0.709, Y 1.5, P 0.463
L177: A 0.839, D 0.322, C 0.72
P166: M 1.41, Q 1.16, V 0.921, I 1.24, G 1.61, H 1.95, D 0.983, Y 1.19, A 1.16, W -0.356, L 0.95, R 0.947, N 1.41, C 1.43, F 1.94, E -0.713, K -0.231, T 1.36, S 0.939
P162: G 1.1, V 0.356, T 0.633, W 1.26, R 0.224, E 0.27, C 1.41, Y 2.9, A 0.796, F 1.37, H 2.88, I 1.97, L 1.04, M 0.548, N -1.7, S 0.476, Q 1.54
A170: K 1.97, Q 0.496, V 0.782, M 0.0569, L 0.356, R 1.29, N 1.2, E 0.67, W 1.84, P 0.929, F 1.69, S 0.78, G 0.778, D 0.761, I 0.784, C 1.24, T 0.748, H 1.86, Y 2.08
P163: K 1.29, R 0.66, Q 1.05, V 0.445, F 0.944, W 2.35, L 0.899, Y 1.53, I 1.05, N 1.73, D -0.123, M 0.889, A 0.36, C 1.48, T 0.923, S 1.3, G 0.723, H 0.674, E 0.136
S169: Q 0.286, E 0.245, W 1.57, N 1.18, I 1.2, L 1.7, K 1.77, P 1.73, R 0.711, G 1.42, V 1.35, M 0.503, Y 1.62, A 0.813, T -0.214, C 0.968, F 1.46, D 1.22
R174: Q 0.21, C 0.35, H 0.805, A 0.803, W 2.14, N -0.393, G 0.531, I 0.22, T 0.614, P 0.727, L 0.495, Y 1.09, K 0.973, D 0.334, E 0.744, V 0.506, S 0.758, M 0.283, F 1.53
